Data reported in PMC10350833.

Key:
[1] = biological target: GFP-p62^S349A (human) (UniProt Q13501)
[2] = biological target: GFP-p62^S349E (human) (UniProt Q13501)

mCherry-tagged KEAP1 (from UniProt Q14145 1-624) (natural protein)
FLIP: signal intensity of mCherry-KEAP1 in GFP-p62 bodies of the non-bleached area, percent of the baseline value at 30 min after photobleaching (efflux of KEAP1) [1]: 58.2%
FLIP: signal intensity of mCherry-KEAP1 in GFP-p62 bodies of the non-bleached area, percent of the baseline value at 30 min after photobleaching (efflux of KEAP1) [2]: 72%
